Experimental data: US20240336657A1, “G-ALPHA-S PEPTIDE INHIBITORS AND USES THEREOF” (The Regents of the University of California, priority 2021, published 2024)
Positions of bridges follow the written chain, without caps; N, C: chain ends. Non-standard residues stand in square brackets, D forms with d.

B1: GN1 (peptide)
peptide: {CH2CO}-[dY]QFIEVWPFYLPCG-NH2
modifications: thioether N-13
SMILES: CC[C@H](C)[C@@H]1NC(=O)[C@H](Cc2ccccc2)NC(=O)[C@H](CCC(N)=O)NC(=O)[C@@H](Cc2ccc(O)cc2)NC(=O)CSC[C@@H](C(=O)NCC(N)=O)NC(=O)[C@@H]2CCCN2C(=O)[C@H](CC(C)C)NC(=O)[C@H](Cc2ccc(O)cc2)NC(=O)[C@H](Cc2ccccc2)NC(=O)[C@@H]2CCCN2C(=O)[C@H](Cc2c[nH]c3ccccc23)NC(=O)[C@H](C(C)C)NC(=O)[C@H](CCC(=O)O)NC1=O
notes: the number is its rank in the selection
B2: GN3 (peptide)
peptide: {CH2CO}-[dY]NWSNQFDWFLDLCG-NH2
modifications: thioether N-14
SMILES: CC(C)C[C@@H]1NC(=O)[C@H](CC(=O)O)NC(=O)[C@H](CC(C)C)NC(=O)[C@H](Cc2ccccc2)NC(=O)[C@H](Cc2c[nH]c3ccccc23)NC(=O)[C@H](CC(=O)O)NC(=O)[C@H](Cc2ccccc2)NC(=O)[C@H](CCC(N)=O)NC(=O)[C@H](CC(N)=O)NC(=O)[C@H](CO)NC(=O)[C@H](Cc2c[nH]c3ccccc23)NC(=O)[C@H](CC(N)=O)NC(=O)[C@@H](Cc2ccc(O)cc2)NC(=O)CSC[C@@H](C(=O)NCC(N)=O)NC1=O
B3: GN6 (peptide)
peptide: Ac-[dY]CFYEVWPYYLPCG-NH2
modifications: thioether (positions not given here); also: thioether partner Cys2 or Cys13 not settled
B4: GN7 (peptide)
peptide: {CH2CO}-[dY]SWPNQFDWFIELCG-NH2
modifications: thioether N-14
SMILES: CC[C@H](C)[C@@H]1NC(=O)[C@H](Cc2ccccc2)NC(=O)[C@H](Cc2c[nH]c3ccccc23)NC(=O)[C@H](CC(=O)O)NC(=O)[C@H](Cc2ccccc2)NC(=O)[C@H](CCC(N)=O)NC(=O)[C@H](CC(N)=O)NC(=O)[C@@H]2CCCN2C(=O)[C@H](Cc2c[nH]c3ccccc23)NC(=O)[C@H](CO)NC(=O)[C@@H](Cc2ccc(O)cc2)NC(=O)CSC[C@@H](C(=O)NCC(N)=O)NC(=O)[C@H](CC(C)C)NC(=O)[C@H](CCC(=O)O)NC1=O
B5: GN8 (peptide)
peptide: {CH2CO}-[dY]QYTYPYLVIDWTCG-NH2
modifications: thioether N-14
SMILES: CC[C@H](C)[C@@H]1NC(=O)[C@H](C(C)C)NC(=O)[C@H](CC(C)C)NC(=O)[C@H](Cc2ccc(O)cc2)NC(=O)[C@@H]2CCCN2C(=O)[C@H](Cc2ccc(O)cc2)NC(=O)[C@H]([C@@H](C)O)NC(=O)[C@H](Cc2ccc(O)cc2)NC(=O)[C@H](CCC(N)=O)NC(=O)[C@@H](Cc2ccc(O)cc2)NC(=O)CSC[C@@H](C(=O)NCC(N)=O)NC(=O)[C@H]([C@@H](C)O)NC(=O)[C@H](Cc2c[nH]c3ccccc23)NC(=O)[C@H](CC(=O)O)NC1=O
B6: GN11 (peptide)
peptide: {CH2CO}-[dY]LTNWGVYWDQYWCG-NH2
modifications: thioether N-14
SMILES: CC(C)C[C@@H]1NC(=O)[C@@H](Cc2ccc(O)cc2)NC(=O)CSC[C@@H](C(=O)NCC(N)=O)NC(=O)[C@H](Cc2c[nH]c3ccccc23)NC(=O)[C@H](Cc2ccc(O)cc2)NC(=O)[C@H](CCC(N)=O)NC(=O)[C@H](CC(=O)O)NC(=O)[C@H](Cc2c[nH]c3ccccc23)NC(=O)[C@H](Cc2ccc(O)cc2)NC(=O)[C@H](C(C)C)NC(=O)CNC(=O)[C@H](Cc2c[nH]c3ccccc23)NC(=O)[C@H](CC(N)=O)NC(=O)[C@H]([C@@H](C)O)NC1=O
B7: GN15 (peptide)
peptide: {CH2CO}-[dY]KYWDFDNFQELYCG-NH2
modifications: thioether N-14
SMILES: CC(C)C[C@@H]1NC(=O)[C@H](CCC(=O)O)NC(=O)[C@H](CCC(N)=O)NC(=O)[C@H](Cc2ccccc2)NC(=O)[C@H](CC(N)=O)NC(=O)[C@H](CC(=O)O)NC(=O)[C@H](Cc2ccccc2)NC(=O)[C@H](CC(=O)O)NC(=O)[C@H](Cc2c[nH]c3ccccc23)NC(=O)[C@H](Cc2ccc(O)cc2)NC(=O)[C@H](CCCCN)NC(=O)[C@@H](Cc2ccc(O)cc2)NC(=O)CSC[C@@H](C(=O)NCC(N)=O)NC(=O)[C@H](Cc2ccc(O)cc2)NC1=O
B8: GD20-F10L (peptide)
peptide: {CH2CO}-[dY]LITFRQWALNLPCG-NH2
modifications: thioether N-14
SMILES: CC[C@H](C)[C@@H]1NC(=O)[C@H](CC(C)C)NC(=O)[C@@H](Cc2ccc(O)cc2)NC(=O)CSC[C@@H](C(=O)NCC(N)=O)NC(=O)[C@@H]2CCCN2C(=O)[C@H](CC(C)C)NC(=O)[C@H](CC(N)=O)NC(=O)[C@H](CC(C)C)NC(=O)[C@H](C)NC(=O)[C@H](Cc2c[nH]c3ccccc23)NC(=O)[C@H](CCC(N)=O)NC(=O)[C@H](CCCNC(=N)N)NC(=O)[C@H](Cc2ccccc2)NC(=O)[C@H]([C@@H](C)O)NC1=O
notes: Single substitution F10L of GD20; also called cell permeable GD20 analog F10L

What follows are binders tested against T1, Biotinylated His/Avi-tagged Gαs used in the RaPID selection, GppNHp-bound (human, UniProt P63092 7-394, biotin on the Avi tag (BirA co-expressed)) (assay: RaPID comparison selection: peptide-mRNA-cDNA complexes on Gαs-immobilized streptavidin beads, qPCR and sequencing).
T1 construct: Immobilized on streptavidin magnetic beads
T1 sequence (P63092 other isoform, or with tags, fused parts or gaps limits assumed): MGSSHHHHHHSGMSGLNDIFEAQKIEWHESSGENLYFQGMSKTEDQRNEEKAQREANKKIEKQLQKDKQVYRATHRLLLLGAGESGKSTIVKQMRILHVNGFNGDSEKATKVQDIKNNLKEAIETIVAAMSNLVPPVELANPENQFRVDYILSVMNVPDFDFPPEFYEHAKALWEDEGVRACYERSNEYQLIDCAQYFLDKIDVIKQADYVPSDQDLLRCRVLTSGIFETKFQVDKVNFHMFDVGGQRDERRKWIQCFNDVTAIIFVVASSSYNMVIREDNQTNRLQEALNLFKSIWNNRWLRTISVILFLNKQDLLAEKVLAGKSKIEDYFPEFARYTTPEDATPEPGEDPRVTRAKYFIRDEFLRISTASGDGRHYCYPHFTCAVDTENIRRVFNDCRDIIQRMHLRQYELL

Binder | fold selectivity for GppNHp-bound over GDP-bound Gαs [fold]
B1 | > 100
B2 | > 100
B3 | > 100
B4 | > 100
B5 | > 100
B6 | > 100
B7 | > 100

These binders were tested against T2, Biotinylated Avi-tagged WT Gαs (residues 7-380 of the short isoform of human Gαs), GDP-bound (human, UniProt P63092 7-394, biotin on the Avi tag (BirA)) (assay: TR-FRET competition: biotinylated GDP-bound Gαs WT against His-Gβγ(C68S)).
T2 construct: Loaded with GDP; Same polypeptide as m7, other nucleotide state; also called biotinylated Gαs WT
Method: (§1) Biotinylated avi-Gαs (6-end, WT) and avi-Gαi (FL, WT) were diluted to 32 nM (8×) using assay buffer (1× PBS 7.4, 2 mM DTT, 0.1% BSA, 2 mM MgCl₂, 0.05% Tween plus 0.5 mM GDP), followed by mixing with a same volume of 8× streptavidin XL665 stock (32 nM in the assay buffer). 8× His-Gβ/γ (C68S) stock (16 nM) and 8× anti-6His-Tb cryptate stock (0.4 μg/mL) were added into the Gα/XL665 mixtures. Finally, 2× stocks of cyclic peptides were added with the protein mixtures. After incubation at room temperature for 2 hour at room temperature. […] FRET Signal was calculated as the ratio of [Read B]/[Read A].

T2 sequence (P63092 other isoform, or with tags, fused parts or gaps limits assumed): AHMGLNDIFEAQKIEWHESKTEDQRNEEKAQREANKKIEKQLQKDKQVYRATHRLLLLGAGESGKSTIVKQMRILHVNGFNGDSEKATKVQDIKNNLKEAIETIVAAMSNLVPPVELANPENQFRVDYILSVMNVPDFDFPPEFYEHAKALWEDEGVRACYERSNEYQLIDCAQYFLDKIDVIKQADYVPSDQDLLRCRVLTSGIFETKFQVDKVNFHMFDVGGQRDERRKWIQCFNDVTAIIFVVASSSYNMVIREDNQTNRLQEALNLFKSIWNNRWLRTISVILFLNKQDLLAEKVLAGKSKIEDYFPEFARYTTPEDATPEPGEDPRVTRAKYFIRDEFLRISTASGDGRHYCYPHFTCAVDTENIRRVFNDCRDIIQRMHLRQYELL

Binder | IC50 [nM]
B8 | 14

What follows are binders tested against T2, Biotinylated Avi-tagged WT Gαs … (assay: TR-FRET competition: biotinylated Gαs or Gαi (GDP) against His-Gβγ(C68S)).
Method: as §1

Binder | fold selectivity for Gαs over Gαi [fold]
B8 | 100
